Experimental findings from the nanobody polyreactivity screen of Harvey et al. (2022) are described below.

A short description of this data set: yeast display, Sf9 membrane polyspecificity reagent, FACS + sequencing; frameworks hold sequencing errors. In a few lines:
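In a synthetic yeast display library (Saccharomyces cerevisiae BJ5465), nanobody expression was induced with galactose for 36–48 hours. FACS gates were set low and high (top ~1%) using anti-HA fluorescence for expression and streptavidin fluorescence for binding of the Sf9 membrane reagent. Each polyreactivity label is drawn from the gate of origin.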
“QVQLVESGGGLVQAGGSLRLICAASGFIFSYYAMGWYRQAPGKERELVAAISKTGGNTYYADSVKGRFTISRDYAKNTVYLQMNSLKPEDTAVYYCNALRGDWRDMGYWGQGTQVTVSS”: the “polyreactivity (PSR sort gate)” value is “high polyreactivity”. Under “QVQLVESGGGLVQAGGSLRLICAASGFIFWIYAMGWYRQAPGKEREFVAVITYRGDTTYYADSVKGRFTISRDNAKNTVYLQMNSLKPEDTAVYYCAAYTVQKYGYWGQGTQVTVSS” stands “low polyreactivity”; under “QVQLVESGGGLVQAGGSLRLICAASGFNLEYYSMGWYRQATGKERELVAVITESDGNTYYPDSVKGRFTISRDTAKNTVYLQMYSLKPEDTALYYCAAPYSFIQGGIRRGYHGYVYWGQGTQVTVSS”, “low polyreactivity”.

Turning to “QVQLVESGGGLVQAGGSLRLICAASGFTFAKYAMGSYTQAPGKERQLVAGITGNSGTTYYADSVKGRFTISRDNAKNTVYLQMNSLKPEDTAVYYCAAEEVSWNGTGDYWGQGTQVTVSS”, the “polyreactivity (PSR sort gate)” value is given as “high polyreactivity”. The result for “QVQLVESGGGLVQAGGSLRLICAASGFTFGYYAMGWYRQAPGKEREFVARISWSGDSTYYADSVKGRFTISRDNAKNTVYLQMTSLKPEDTAVYYCAARFTRQMYYWGQGTQVTVSS” reads “high polyreactivity”; that for “QVQLVESGGGLVQAGGSLRLICAASGFTFLVNAMGWYRQAPGKERELVAAISSGGSTYYADSVKGRFTISRDNAKNTVYLQMNSLKPEDTAVYYCAAPTDFLFWEFDYWGQGTQVTVSS”, “low polyreactivity”. The result for “QVQLVESGGGLVQAGGSLRLICAASGFTFSGNTMGWYRQAPGKERELVATISRTGGITYYADSVKGRFTISRDNAKNTVYLQMNSLKPEDTAVYYCNRRYYYFVYPDDYWGQGTQVTVSS” reads “high polyreactivity”. The result for “QVQLVESGGGLVQAGGSLRLICAASGFTFSYNAMGWYRPAPGTERELVAVITKSGGSTNYADSVKGRFTISRDNAKNTVYLQRNSLKPEDTAVYYCNRQIKKLLTTHYYWGQGTQVTVSS” reads “high polyreactivity”. As to “QVQLVESGGGLVQAGGSLRLICAASGFTFTQYVMGWYSQAPGKERELVAAINWSGGNTYYAESVKGRFTISRDNAKNTVYLQMNSLKPEDTAVYYCAAYRHRNGYDYWGQGTQVTVSS”, the “polyreactivity (PSR sort gate)” value is on record as “high polyreactivity”. Under “QVQLVESGGGLVQAGGSLRLICAASGFTFWDYTMGWYIQAPGKERELVAAITRSGGRTYYADSVKGRFTISRDNENNTFYLQMNSLKTEDTAVYYCAAKIWSKDEKHDYWGQGTQVTVSS” stands “high polyreactivity”; under “QVQLVESGGGLVQAGGSLRLICAASGFTFYRYAMGWYRPAPGKERELVAAITNIAGSTYYADSVKGRFTISRDNAKNTLYLQMNSLKPEDTAVYYCNANRLRRYDYWGQGTQVTVSS”, “high polyreactivity”; under “QVQLVESGGGLVQAGGSLRLICAASGFTIGANTMGWYREAPGKERELVAAITSGGRTYYADSVKGRFTISRDNAKNTVYLQMNSLKPEDTAVYYCAAGRPRTIFQEYGSWGQGTQVTVSS”, “high polyreactivity”.

For the sequence “QVQLVESGGGLVQAGGSLRLICAASGIIFAYYAMGWYRQSPGKERELVAAITWSGGRTYYADSVKGRFTISRDNAKNTVYLQMNSLKPEDTSVYYCAARFTRQMYYWGQGTQVTVSS”, the “polyreactivity (PSR sort gate)” value is listed as “high polyreactivity”. Under “QVQLVESGGGLVQAGGSLRLICAASGIIFDDYAMVWYRQAPGNERELVAAISVSGGSTYYADSVKGRFTISRDNAKNTVYLQMNSLKPEDTAVYYCAARLRWRYSYDYWGQGTQVTVSS” stands “high polyreactivity”. The result for “QVQLVESGGGLVQAGGSLRLICAASGIIFPSYAMGWYRQAPGKERELVAGISLSGGSTYYADSVKGRFTISRDNAKNTVYLQMNSLKPEDTAVYYCDTRNHYFRALRYGYWGQGTLVTVSS” reads “high polyreactivity”; that for “QVQLVESGGGLVQAGGSLRLICAASGIIFQYYAMGWYRQAPGKERELVAAISWSGGSTYYADSVKGRFTISRDNAKNTVYLQMNSVKPEETAVYYCNAVYYSRIVGVRIYDYWGQGTQVTVSS”, “low polyreactivity”; that for “QVQLVESGGGLVQAGGSLRLICAASGIIFTRYAMGWYRQAPGKERELVAAISTRGGSTYYADSVKGRFTISRDNAMNTVYLQMNSLKPEDTAVYYCAATNAKDGEMDYWGQGTQVTVSS”, “high polyreactivity”.

“QVQLVESGGGLVQAGGSLRLICAASGIIFVGYAMGWYRQAPGKERELVAAIDGTGDSTYYADSVKGRFTISRDNAKNTVYLQMNSLKPEDTAVYYCDAEYDYRWWYGYDYWGQATQVTVSS”: the “polyreactivity (PSR sort gate)” value was “high polyreactivity”.

With “QVQLVESGGGLVQAGGSLRLICAASGIIFVSNAMGWYRQAPGKERELVATINWSDDSTYYADSVKGRFTISRDNAKYTVYLQMNSLKPEDTAVYYCNARPLRYVESDYWGQGTQVTVSS”, the “polyreactivity (PSR sort gate)” value is reported as “low polyreactivity”. Under “QVQLVESGGGLVQAGGSLRLICAASGIILVYYDMGWYRQAPGKEMELVDTISRGGSTNYADSVMGRFTISRDNAKNTVYLQMISLKPEDTAVNYCAAGSYSIWVHLVRYYYWGQGTQVTVSS” stands “high polyreactivity”. For “QVQLVESGGGLVQAGGSLRLICAASGIIYYYYAMGWYRQAPGKERELVAAINFSVGGTYYADSVKGSFTNSRDNAKNSVYLQMNSQKPEDTAVYYCAKDIVIPATYVEYDYWGQGTQVTVSS”, the “polyreactivity (PSR sort gate)” value is recorded as “low polyreactivity”.

With “QVQLVESGGGLVQAGGSLRLICAASGILVYNAMGWYRQAPGKERELVAAISARGGRKYYADSVKGRFTISRDNAKNTVYLQMYSLKTEDTAVYYCATLETSGVNYWGQGTQVTVSS”, the “polyreactivity (PSR sort gate)” value is “high polyreactivity”. Consider “QVQLVESGGGLVQAGGSLRLICAASGISFDGNPMGWYRQAPGKERELVASITSDSSTNYADSVKGRFTISRDNAKNTVYLQMKSLKPEDTAVYYCAADHWIAPRRDYWGQGTQVTVSS”, for which the “polyreactivity (PSR sort gate)” value is “low polyreactivity”. Under “QVQLVESGGGLVQAGGSLRLICAASGITFDGYAMGWYRQAPGKERELVAAISWSGGRTYYADSVKGRFTISRDNAKNTVYLQMNSLKPEDTAVYYCAVYRRGVVYLLTSGVDYWGQGTQVTVSS” stands “high polyreactivity”. The result for “QVQLVESGGGLVQAGGSLRLICAASGITFRRYTMGWYREAPGKERELVATISLSDGNTYYADSVKGRFTISRDNAKYTLYLQMNSLKPEDTAVYYCNARHTWHQTYDYWGQGTIVTVSS” reads “low polyreactivity”; that for “QVQLVESGGGLVQAGGSLRLICAASGITFSLYVKGRYSQAPGNERELVAAISTSGGSTYYADSVKGRFSLSRDNPKKSVYFQMNSLKPEDTSVYYCAAVYVLSWYVQTYDYWGQGTQVTVSS”, “low polyreactivity”; that for “QVQLVESGGGLVQAGGSLRLICAASGITFSTYTMGWYRQAPRKEREFVAAISSRGGSTYYADSVKGRFTISRDNAKNTAYLQMNRLIPEVTAVYYCAAALVAPFDYWVQGTQVTVSS”, “high polyreactivity”. In the case of “QVQLVESGGGLVQAGGSLRLICAASGITLPIYAMGWYRQAPGKERELVATISQRDARTYYADSVKGRFTISRDNAKNTVYLQMNSLKPEDTAVYYCARGYKKSVQRFEYWGQGTQVTVSS”, the “polyreactivity (PSR sort gate)” value was “high polyreactivity”.

For “QVQLVESGGGLVQAGGSLRLICAASGLIFGPYAMGWYRQAPGKEREFVAAITRSDGSTYYADSVKGRFTISRDNAKNTVFLQMNSLNPEDTAVYYCNADAGYVWFGGAYYWPYDYWRQGTQVTVSS”, the “polyreactivity (PSR sort gate)” value was “low polyreactivity”. Under “QVQLVESGGGLVQAGGSLRLICAASGLTFAGYAMGWYRQAPGKERELVAAITYSTGRTYYADSVKGRFTISRDNAKNTVYLQMNSLKPEDTAVYYCAALLRGQDRTMDYWGQGTQVTVSS” stands “high polyreactivity”; under “QVQLVESGGGLVQAGGSLRLICAASGLTFFRNAMGWYRQAPGKEREFVAGITSTDGSTYYADSVKGRFTISRDNAKNTVYLQMNSLKPEDTAVYYCAAAYRVRGRTYDSWGQGTQVTVSS”, “high polyreactivity”; under “QVQLVESGGGLVQAGGSLRLICAASGLTFGSNGMGWYRQAPGKERELVAAISRGGSTSYADSVKGRFTISRDNAKNTVYLQMNSLKPEDTAVYYCNASPWGPSYFRTPYYGVRRYNYWGQGTQVTVSS”, “high polyreactivity”. Under “QVQLVESGGGLVQAGGSLRLICAASGLTFISYAMGWYRQAPGKERELVAAITYSGGSTYYADSVKGRFTISRDNAKNTVYLQMNSLKPEDTAVYYCAVEIPGLLWYLPTYDYWGQGTQVTVSS” stands “low polyreactivity”. Under “QVQLVESGGGLVQAGGSLRLICAASGLTFRPNSMGWFRQAPGKERELVAAITWLGGRTYYADSVKGRFTISRDNSKNTVYLQMNSLKPEDTEVYYCSADSPYRGRQCPLNYGGDYWGQGTQVTVSS” stands “high polyreactivity”; under “QVQLVESGGGLVQAGGSLRLICAASGLTLYPYAMGWYRQAPGKERELVAAISGAGTRTYYADSVKGRFTISRDNAKNTVYLQMNSLKPEDTAVYYCAAVGFRPYDYWGQGTQLTVSS”, “high polyreactivity”.

Take “QVQLVESGGGLVQAGGSLRLICAASGNIFHRYAMGWYRQAPGKERELVAAINGGGGSTYYADSVKGRFTISRDNAKNTVYLQMNSLKPEDTAVYSCAAVVQNGVHIYDYWGQGTQVTVSS”: the “polyreactivity (PSR sort gate)” value is given as “high polyreactivity”. The result for “QVQLVESGGGLVQAGGSLRLICAASGNIFSYNAMGWYRQAPGKERELVAAISRRGGSTFYADSVKGRFTISRDKAKNTVYLQMNSLKPEDTAVYYCAASRNRYSYGYWGQGTQVTVSS” reads “high polyreactivity”; that for “QVQLVESGGGLVQAGGSLRLICAASGNIFVYYALGWYRQAPGKERELVAAITSDVSTYYADSVKGRFTISRDNAKNTVYLQLNSLKPEVTAVYYCATTGYGSYVIYWGQGTQVTVSS”, “low polyreactivity”.

Turning to “QVQLVESGGGLVQAGGSLRLICAASGRIFAHYARGWYRQAPGKERELVAAISWRGGRTYYADSVKGRFTISRDNAKNTVYLQMNSLKPEDTAVYYCNAVGYSQGYDYWGQGTQVTVSS”, the “polyreactivity (PSR sort gate)” value is “high polyreactivity”. The result for “QVQLVESGGGLVQAGGSLRLICAASGRIFDFYAMGWYRQAPGKDRELVAAITTGDSTYYADSVKGRFTISRDNAKNTVYLQMNSLKPEDTAVYDCAAVGHGGWDGDDYWGQGTQVTVSS” reads “low polyreactivity”. Under “QVQLVESGGGLVQAGGSLRLICAASGRIFGSYVMGWYRQAPGKERELVAAISFSGDTTYYADSVKGRFTISRDNAKNTVYLQMNSLKPDDTAVYYCAAEFPQGYYAFKYDYWGQGTQVTVSS” stands “high polyreactivity”.
